Literature values in paper PMC2846211.

Biological target: DNA polymerase gamma accessory subunit (Homo sapiens) (UniProt Q9UHN1)
UniProt Q9UHN1, sequence (Q9UHN1 2-485): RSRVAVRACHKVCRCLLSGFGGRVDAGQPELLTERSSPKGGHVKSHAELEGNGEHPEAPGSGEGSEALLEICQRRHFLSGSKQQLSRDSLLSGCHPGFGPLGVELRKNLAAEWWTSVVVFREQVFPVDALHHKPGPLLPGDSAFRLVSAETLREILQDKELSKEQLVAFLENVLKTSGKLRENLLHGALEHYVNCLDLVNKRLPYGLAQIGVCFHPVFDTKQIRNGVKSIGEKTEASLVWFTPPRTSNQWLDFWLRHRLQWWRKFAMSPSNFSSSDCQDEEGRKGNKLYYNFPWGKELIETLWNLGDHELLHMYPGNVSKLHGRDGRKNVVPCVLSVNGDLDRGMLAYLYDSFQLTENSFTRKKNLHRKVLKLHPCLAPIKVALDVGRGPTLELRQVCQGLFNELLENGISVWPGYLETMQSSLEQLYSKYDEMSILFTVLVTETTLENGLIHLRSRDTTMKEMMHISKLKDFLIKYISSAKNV

## DNA polymerase gamma catalytic subunit (from UniProt P54098)
  Kd: 35 nM
